Laboratory results from patent US20220135665A1.
Where “and” joins values, the source holds several entries; their conditions need not be identical. Equal entries are not always repeated. One block for each binder: values may come before it.

Columns and labels:
[1] = molecular target: recombinant human VEGF165 protein (human) (UniProt P15692); assay: cell-based or functional assay
[2] = molecular target: recombinant human VEGF165 protein (human) (UniProt P15692); assay: streptavidin-coated sensor with immobilized biotin-labeled VEGF165; reference Lucentis
[3] = molecular target: recombinant human VEGF165 protein (human) (UniProt P15692); assay: streptavidin-coated sensor with immobilized biotin-labeled VEGF165, Fab at multiple concentrations
[4] = molecular target: recombinant human VEGF165 protein (human) (UniProt P15692); assay: ELISA; coated VEGF165 titrated (0.15-3000 ng/mL), Fab fixed at 1 ug/mL; EC50 is in coated antigen concentration
[5] = molecular target: recombinant human VEGF165 protein (human) (UniProt P15692); assay: Table 3, binding affinity to recombinant VEGF165 (streptavidin-coated sensor, biotin-labeled VEGF165)

EC50(nM), neutralization of HUVEC proliferation, VEGF165 at 10 ng/mL [1]: 0.23 nM and 0.18 nM and 0.22 nM
fold affinity against Lucentis [2]: 3.75 fold
Kd [3]: 154 pM
koff [3]: 4.21e-05 s⁻¹
kon [3]: 274000 M⁻¹ s⁻¹
EC50 [4]: 0.0187 µg/mL
B1: humanized antibody VEGF-H988 Fab fragment (Fab, V domains shown)
VH: QSVQESGPGLVKPSETLSLTCTVSGIDLSSYAISWVRQPPGKGLEYIGYIWNDLFTYYASWAKGRVTISVDTSKNQVDLKLSSVTAADTAVYFCARGTLGDYGGMDPWGQGTLVTVSS
VL: ELQLTQSPSSLSASVGDRVTITCQSSKFLWQGRRLAWYQQKPGKVPKLLIYGASTLASGVPSRFKGSGSGTDFTLTISSLQPEDVATYYCAGYKSYDGDVVGFGGGTKVEIKR

Kd [5]: 19.5 pM
koff [5]: 6.7e-06 s⁻¹
kon [5]: 344000 M⁻¹ s⁻¹
B2: VEGF-H988 (sample label in Table 3) (antibody, V domains shown)
VH: B1 VH
VL: ELQLTQSPSSLSASVGDRVTITCQSSKFLWQGRRLAWYQQKPGKVPKLLIYGASTLASGVPSRFKGSGSGTDFTLTISSLQPEDVATYYCAGYKSYDGDVVGFGGGTKVEIK

EC50(nM), neutralization of HUVEC proliferation, VEGF165 at 10 ng/mL [1]: 0.41 nM
EC50(nM), neutralization of HUVEC proliferation, VEGF165 at 100 ng/mL [1]: 6.74 nM
EC50(nM), neutralization of HUVEC proliferation, VEGF165 at 1000 ng/mL [1]: 71.2 nM
Maximum neutralization rate (%), VEGF165 at 10 ng/mL [1]: 100%
Maximum neutralization rate (%), VEGF165 at 100 ng/mL [1]: 101%
Maximum neutralization rate (%), VEGF165 at 1000 ng/mL [1]: 101%
B3: Brolucizumab (scFv, INN chains, looked up, V domains shown)
VH: EVQLVESGGGLVQPGGSLRLSCTASGFSLTDYYYMTWVRQAPGKGLEWVGFIDPDDDPYYATWAKGRFTISRDNSKNTLYLQMNSLRAEDTAVYYCAGGDHNSGWGLDIWGQGTLVTVSS
VL: EIVMTQSPSTLSASVGDRVIITCQASEIIHSWLAWYQQKPGKAPKLLIYLASTLASGVPSRFSGSGSGAEFTLTISSLQPDDFATYYCQNVYLASTNGANFGQGTKLTVL
modifications: scFv
